Substitutions are numbered along the chain they refer to. Names and notes keep the numbering of the source. Read-outs that look alike come from different tables or passages of the source.

The record followed here is US20190177417A1 (BIOATLA, published 2019).

Assay [1] concerns the target T1, Axl protein (human, UniProt P30530 26-451).
T1 construct: extracellular domain; also called human Axl; hAxl
T1 sequence (looked up): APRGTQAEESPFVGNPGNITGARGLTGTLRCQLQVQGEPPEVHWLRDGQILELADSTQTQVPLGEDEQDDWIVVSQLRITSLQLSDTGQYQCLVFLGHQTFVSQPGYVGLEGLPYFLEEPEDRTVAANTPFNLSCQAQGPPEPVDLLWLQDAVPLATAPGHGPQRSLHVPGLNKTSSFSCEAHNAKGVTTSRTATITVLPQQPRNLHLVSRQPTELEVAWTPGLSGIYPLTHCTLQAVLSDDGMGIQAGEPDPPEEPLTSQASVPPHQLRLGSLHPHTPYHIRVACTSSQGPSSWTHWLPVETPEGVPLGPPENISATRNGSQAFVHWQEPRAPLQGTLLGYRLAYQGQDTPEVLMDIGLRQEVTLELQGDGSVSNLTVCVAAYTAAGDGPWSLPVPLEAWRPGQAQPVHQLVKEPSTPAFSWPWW
The experiment in a line: ELISA, 1:9 dilution, pH 6.0 over pH 7.4. In general terms: In an ELISA, binding on a coated surface is turned into a signal by an enzyme label.

Assay [2] has as its target T1, Axl protein. The experiment in a line: ELISA, 1:3 dilution, pH 6.0 over pH 7.4.
Assay [3] deals with T1, Axl protein. Kind of assay: ELISA, 1:3 dilution, pH 6.0 over pH 7.4. The source holds these as a separate data set.
The target in assay [4] is T1, Axl protein. The experiment in a line: ELISA, 1:9 dilution, pH 6.0 over pH 7.4. The source holds these as a separate data set.

B1: LC-V029D (antibody, V domains shown)
VH: EVQLVQSGAEVKKPGATVKISCKVSGYSFTGHTMNWIRQPPGKGLEWIGLIKPSNGGTSYNQKFKGRVTISADKSISTAYLQWSSLKASDTAMYYCAHGHYESYFAMDYWGQGTLVTVSS
VL: DIQMTQSPSSLSASVGDRVTITCKASQDDSSAVAWYQQKPGQAPRLLIYWASTRHTGVPSRFSGSGSGTEFTLTISSLQPDDFATYYCQEHFSTPLTFGQGTKVEIK
In the case of B1, the “Affinity ELISA CPE mutant ratio (1:9, pH 6.0/7.4)” value in the assay with Axl protein [1] amounted to 2.68 ratio. Besides, the “Affinity ELISA CPE mutant ratio (1:3, pH 6.0/7.4)” value in the assay with Axl protein [2] came to 2.88 ratio.

B2: LC-V029W (antibody, V domains shown)
VH: B1 VH
VL: B1 VL with D29W
As for B2, in the assay with Axl protein [1], the “Affinity ELISA CPE mutant ratio (1:9, pH 6.0/7.4)” value was determined as 2.35 ratio. For the same molecule, the “Affinity ELISA CPE mutant ratio (1:3, pH 6.0/7.4)” value in the assay with Axl protein [2] turned out to be 2.31 ratio.

B3: LC-V029G (antibody, V domains shown)
VH: B1 VH
VL: B1 VL with D29G
With B3, in the assay with Axl protein [1], the “Affinity ELISA CPE mutant ratio (1:9, pH 6.0/7.4)” value came to 1.8 ratio. Moreover, the “Affinity ELISA CPE mutant ratio (1:3, pH 6.0/7.4)” value with Axl protein [2] is 1.94 ratio.

B4: LC-H091Y (antibody, V domains shown)
VH: B1 VH
VL: B1 VL with D29V, H91Y
In the case of B4, in the assay with Axl protein [1], the “Affinity ELISA CPE mutant ratio (1:9, pH 6.0/7.4)” value turned out to be 5.13 ratio. For the same molecule, the “Affinity ELISA CPE mutant ratio (1:3, pH 6.0/7.4)” value with Axl protein [2] was found to be 3.93 ratio.

B5: LC-F092C (antibody, V domains shown)
VH: B1 VH
VL: B1 VL with D29V, F92C
As to B5, in the assay with Axl protein [1], the “Affinity ELISA CPE mutant ratio (1:9, pH 6.0/7.4)” value was 4.58 ratio. Further, the “Affinity ELISA CPE mutant ratio (1:3, pH 6.0/7.4)” value with Axl protein [2] was 3.86 ratio.

B6: LC-A051I (antibody, V domains shown)
VH: B1 VH
VL: B1 VL with D29V, A51I
Take B6: the “Affinity ELISA CPE mutant ratio (1:9, pH 6.0/7.4)” value with Axl protein [1] was 2.14 ratio. Besides, the “Affinity ELISA CPE mutant ratio (1:3, pH 6.0/7.4)” value with Axl protein [2] came to 2.24 ratio.

B7: LC-V029N (antibody, V domains shown)
VH: B1 VH
VL: B1 VL with D29N
On to B7, for which the “Affinity ELISA CPE mutant ratio (1:9, pH 6.0/7.4)” value with Axl protein [1] was found to be 2.65 ratio. Besides, the “Affinity ELISA CPE mutant ratio (1:3, pH 6.0/7.4)” value with Axl protein [2] amounted to 2.6 ratio.

B8: LC-F092G (antibody, V domains shown)
VH: B1 VH
VL: B1 VL with D29V, F92G
Turning to B8, the “Affinity ELISA CPE mutant ratio (1:9, pH 6.0/7.4)” value with Axl protein [1] is 4.76 ratio. Besides, in the assay with Axl protein [2], the “Affinity ELISA CPE mutant ratio (1:3, pH 6.0/7.4)” value was 3.69 ratio.

B9: LC-A032L (antibody, V domains shown)
VH: B1 VH
VL: B1 VL with D29V, A32L
In the case of B9, the “Affinity ELISA CPE mutant ratio (1:9, pH 6.0/7.4)” value with Axl protein [1] is 2.27 ratio. Also, in the assay with Axl protein [2], the “Affinity ELISA CPE mutant ratio (1:3, pH 6.0/7.4)” value stood at 1.98 ratio.

B10: LC-T094C (antibody, V domains shown)
VH: B1 VH
VL: B1 VL with D29V, T94C
Consider B10, for which the “Affinity ELISA CPE mutant ratio (1:9, pH 6.0/7.4)” value with Axl protein [1] is 1.77 ratio. Also, in the assay with Axl protein [2], the “Affinity ELISA CPE mutant ratio (1:3, pH 6.0/7.4)” value amounted to 1.42 ratio.

B11: LC-A034N (antibody, V domains shown)
VH: B1 VH
VL: B1 VL with D29V, A34N
In the case of B11, the “Affinity ELISA CPE mutant ratio (1:9, pH 6.0/7.4)” value with Axl protein [1] was found to be 2.4 ratio. Besides, the “Affinity ELISA CPE mutant ratio (1:3, pH 6.0/7.4)” value with Axl protein [2] stood at 2.63 ratio.

B12: LC-A032M (antibody, V domains shown)
VH: B1 VH
VL: B1 VL with D29V, A32M
On to B12, for which the “Affinity ELISA CPE mutant ratio (1:9, pH 6.0/7.4)” value with Axl protein [1] came out at 2.92 ratio. Moreover, in the assay with Axl protein [2], the “Affinity ELISA CPE mutant ratio (1:3, pH 6.0/7.4)” value worked out at 4.76 ratio.

B13: LC-F092E (antibody, V domains shown)
VH: B1 VH
VL: B1 VL with D29V, F92E
In the case of B13, the “Affinity ELISA CPE mutant ratio (1:9, pH 6.0/7.4)” value in the assay with Axl protein [1] came to 2 ratio. The “Affinity ELISA CPE mutant ratio (1:3, pH 6.0/7.4)” value with Axl protein [2] turned out to be 1.76 ratio.

B14: LC-H091S (antibody, V domains shown)
VH: B1 VH
VL: B1 VL with D29V, H91S
Turning to B14, the “Affinity ELISA CPE mutant ratio (1:9, pH 6.0/7.4)” value with Axl protein [1] amounted to 1.34 ratio. For the same molecule, in the assay with Axl protein [2], the “Affinity ELISA CPE mutant ratio (1:3, pH 6.0/7.4)” value stood at 1.76 ratio.

B15: LC-F092D (antibody, V domains shown)
VH: B1 VH
VL: B1 VL with D29V, F92D
As to B15, the “Affinity ELISA CPE mutant ratio (1:9, pH 6.0/7.4)” value with Axl protein [1] is 2.94 ratio. Besides, the “Affinity ELISA CPE mutant ratio (1:3, pH 6.0/7.4)” value with Axl protein [2] was found to be 2.97 ratio.

B16: LC-H091T (antibody, V domains shown)
VH: B1 VH
VL: B1 VL with D29V, H91T
In the case of B16, in the assay with Axl protein [1], the “Affinity ELISA CPE mutant ratio (1:9, pH 6.0/7.4)” value worked out at 3.78 ratio. Besides, the “Affinity ELISA CPE mutant ratio (1:3, pH 6.0/7.4)” value in the assay with Axl protein [2] turned out to be 3.78 ratio.

B17: LC-F092N (antibody, V domains shown)
VH: B1 VH
VL: B1 VL with D29V, F92N
As to B17, in the assay with Axl protein [1], the “Affinity ELISA CPE mutant ratio (1:9, pH 6.0/7.4)” value amounted to 2 ratio. For the same molecule, in the assay with Axl protein [2], the “Affinity ELISA CPE mutant ratio (1:3, pH 6.0/7.4)” value amounted to 1.93 ratio.

B18: HC-W110P (antibody, V domains shown)
VH: B1 VH with W110P
VL: B1 VL with D29V
As for B18, the “Affinity ELISA CPE mutant ratio (1:3, pH 6.0/7.4)” value in the assay with Axl protein [3] worked out at 6.49 ratio. In addition, the “Affinity ELISA CPE mutant ratio (1:9, pH 6.0/7.4)” value in the assay with Axl protein [4] worked out at 2.15 ratio.

B19: LC-F092S (antibody, V domains shown)
VH: B1 VH
VL: B1 VL with D29V, F92S
For the molecule B19, the “Affinity ELISA CPE mutant ratio (1:9, pH 6.0/7.4)” value in the assay with Axl protein [1] is 2.94 ratio. Moreover, the “Affinity ELISA CPE mutant ratio (1:3, pH 6.0/7.4)” value in the assay with Axl protein [2] was found to be 3.18 ratio.

B20: LC-H091V (antibody, V domains shown)
VH: B1 VH
VL: B1 VL with D29V, H91V
As to B20, the “Affinity ELISA CPE mutant ratio (1:9, pH 6.0/7.4)” value with Axl protein [1] came to 1.17 ratio. In the assay with Axl protein [2], the “Affinity ELISA CPE mutant ratio (1:3, pH 6.0/7.4)” value was determined as 4.13 ratio.

B21: LC-W050F (antibody, V domains shown)
VH: B1 VH
VL: B1 VL with D29V, W50F
In the case of B21, in the assay with Axl protein [1], the “Affinity ELISA CPE mutant ratio (1:9, pH 6.0/7.4)” value turned out to be 3.5 ratio. For the same molecule, in the assay with Axl protein [2], the “Affinity ELISA CPE mutant ratio (1:3, pH 6.0/7.4)” value was determined as 2.25 ratio.

B22: LC-A034Q (antibody, V domains shown)
VH: B1 VH
VL: B1 VL with D29V, A34Q
As to B22, in the assay with Axl protein [1], the “Affinity ELISA CPE mutant ratio (1:9, pH 6.0/7.4)” value came to 1.41 ratio. Besides, in the assay with Axl protein [2], the “Affinity ELISA CPE mutant ratio (1:3, pH 6.0/7.4)” value was found to be 2 ratio.

B23: LC-A034D (antibody, V domains shown)
VH: B1 VH
VL: B1 VL with D29V, A34D
For the molecule B23, the “Affinity ELISA CPE mutant ratio (1:9, pH 6.0/7.4)” value in the assay with Axl protein [1] was 2.6 ratio. Besides, the “Affinity ELISA CPE mutant ratio (1:3, pH 6.0/7.4)” value with Axl protein [2] came out at 3 ratio.

B24: HC-G111H (antibody, V domains shown)
VH: B1 VH with G111H
VL: B1 VL with D29V
Regarding B24, the “Affinity ELISA CPE mutant ratio (1:3, pH 6.0/7.4)” value with Axl protein [3] turned out to be 1.06 ratio. For the same molecule, the “Affinity ELISA CPE mutant ratio (1:9, pH 6.0/7.4)” value with Axl protein [4] was determined as 1.79 ratio.
